For one test, the target named is amyloid-β (Homo sapiens) (UniProt P05067). The following applies: cited from earlier work.
Test [1] concerns the target recombinant extracellular domain of sortilin (UniProt Q99523). The experiment in a line: SPR. A general note: SPR reads the build-up and loss of mass on a sensor chip optically.

pKd: −log10 of the molar value.

In general, pKd refers to the Kd on a negative log10 scale, so that one unit is a factor of ten.

recombinant extracellular domain of sortilin, sequence (Q99523 78-755): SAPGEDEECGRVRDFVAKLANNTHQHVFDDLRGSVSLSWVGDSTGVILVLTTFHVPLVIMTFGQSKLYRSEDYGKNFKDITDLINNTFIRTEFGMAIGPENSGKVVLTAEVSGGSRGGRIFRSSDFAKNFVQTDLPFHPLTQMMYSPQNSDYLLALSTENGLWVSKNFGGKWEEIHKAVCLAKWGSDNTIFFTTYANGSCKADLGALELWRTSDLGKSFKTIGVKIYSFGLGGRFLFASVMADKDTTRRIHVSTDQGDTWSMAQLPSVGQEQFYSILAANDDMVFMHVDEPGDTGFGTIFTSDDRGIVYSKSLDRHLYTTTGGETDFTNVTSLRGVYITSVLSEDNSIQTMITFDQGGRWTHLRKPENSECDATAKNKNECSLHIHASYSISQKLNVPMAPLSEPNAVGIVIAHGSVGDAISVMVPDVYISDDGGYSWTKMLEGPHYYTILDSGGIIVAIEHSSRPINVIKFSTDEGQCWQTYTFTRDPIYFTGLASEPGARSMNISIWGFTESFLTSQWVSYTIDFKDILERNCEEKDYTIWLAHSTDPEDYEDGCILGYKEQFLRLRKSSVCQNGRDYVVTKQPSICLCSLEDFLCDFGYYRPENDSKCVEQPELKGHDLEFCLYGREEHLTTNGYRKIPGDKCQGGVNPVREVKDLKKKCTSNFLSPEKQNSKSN
LRP1, sequence (Q07954 20-4544): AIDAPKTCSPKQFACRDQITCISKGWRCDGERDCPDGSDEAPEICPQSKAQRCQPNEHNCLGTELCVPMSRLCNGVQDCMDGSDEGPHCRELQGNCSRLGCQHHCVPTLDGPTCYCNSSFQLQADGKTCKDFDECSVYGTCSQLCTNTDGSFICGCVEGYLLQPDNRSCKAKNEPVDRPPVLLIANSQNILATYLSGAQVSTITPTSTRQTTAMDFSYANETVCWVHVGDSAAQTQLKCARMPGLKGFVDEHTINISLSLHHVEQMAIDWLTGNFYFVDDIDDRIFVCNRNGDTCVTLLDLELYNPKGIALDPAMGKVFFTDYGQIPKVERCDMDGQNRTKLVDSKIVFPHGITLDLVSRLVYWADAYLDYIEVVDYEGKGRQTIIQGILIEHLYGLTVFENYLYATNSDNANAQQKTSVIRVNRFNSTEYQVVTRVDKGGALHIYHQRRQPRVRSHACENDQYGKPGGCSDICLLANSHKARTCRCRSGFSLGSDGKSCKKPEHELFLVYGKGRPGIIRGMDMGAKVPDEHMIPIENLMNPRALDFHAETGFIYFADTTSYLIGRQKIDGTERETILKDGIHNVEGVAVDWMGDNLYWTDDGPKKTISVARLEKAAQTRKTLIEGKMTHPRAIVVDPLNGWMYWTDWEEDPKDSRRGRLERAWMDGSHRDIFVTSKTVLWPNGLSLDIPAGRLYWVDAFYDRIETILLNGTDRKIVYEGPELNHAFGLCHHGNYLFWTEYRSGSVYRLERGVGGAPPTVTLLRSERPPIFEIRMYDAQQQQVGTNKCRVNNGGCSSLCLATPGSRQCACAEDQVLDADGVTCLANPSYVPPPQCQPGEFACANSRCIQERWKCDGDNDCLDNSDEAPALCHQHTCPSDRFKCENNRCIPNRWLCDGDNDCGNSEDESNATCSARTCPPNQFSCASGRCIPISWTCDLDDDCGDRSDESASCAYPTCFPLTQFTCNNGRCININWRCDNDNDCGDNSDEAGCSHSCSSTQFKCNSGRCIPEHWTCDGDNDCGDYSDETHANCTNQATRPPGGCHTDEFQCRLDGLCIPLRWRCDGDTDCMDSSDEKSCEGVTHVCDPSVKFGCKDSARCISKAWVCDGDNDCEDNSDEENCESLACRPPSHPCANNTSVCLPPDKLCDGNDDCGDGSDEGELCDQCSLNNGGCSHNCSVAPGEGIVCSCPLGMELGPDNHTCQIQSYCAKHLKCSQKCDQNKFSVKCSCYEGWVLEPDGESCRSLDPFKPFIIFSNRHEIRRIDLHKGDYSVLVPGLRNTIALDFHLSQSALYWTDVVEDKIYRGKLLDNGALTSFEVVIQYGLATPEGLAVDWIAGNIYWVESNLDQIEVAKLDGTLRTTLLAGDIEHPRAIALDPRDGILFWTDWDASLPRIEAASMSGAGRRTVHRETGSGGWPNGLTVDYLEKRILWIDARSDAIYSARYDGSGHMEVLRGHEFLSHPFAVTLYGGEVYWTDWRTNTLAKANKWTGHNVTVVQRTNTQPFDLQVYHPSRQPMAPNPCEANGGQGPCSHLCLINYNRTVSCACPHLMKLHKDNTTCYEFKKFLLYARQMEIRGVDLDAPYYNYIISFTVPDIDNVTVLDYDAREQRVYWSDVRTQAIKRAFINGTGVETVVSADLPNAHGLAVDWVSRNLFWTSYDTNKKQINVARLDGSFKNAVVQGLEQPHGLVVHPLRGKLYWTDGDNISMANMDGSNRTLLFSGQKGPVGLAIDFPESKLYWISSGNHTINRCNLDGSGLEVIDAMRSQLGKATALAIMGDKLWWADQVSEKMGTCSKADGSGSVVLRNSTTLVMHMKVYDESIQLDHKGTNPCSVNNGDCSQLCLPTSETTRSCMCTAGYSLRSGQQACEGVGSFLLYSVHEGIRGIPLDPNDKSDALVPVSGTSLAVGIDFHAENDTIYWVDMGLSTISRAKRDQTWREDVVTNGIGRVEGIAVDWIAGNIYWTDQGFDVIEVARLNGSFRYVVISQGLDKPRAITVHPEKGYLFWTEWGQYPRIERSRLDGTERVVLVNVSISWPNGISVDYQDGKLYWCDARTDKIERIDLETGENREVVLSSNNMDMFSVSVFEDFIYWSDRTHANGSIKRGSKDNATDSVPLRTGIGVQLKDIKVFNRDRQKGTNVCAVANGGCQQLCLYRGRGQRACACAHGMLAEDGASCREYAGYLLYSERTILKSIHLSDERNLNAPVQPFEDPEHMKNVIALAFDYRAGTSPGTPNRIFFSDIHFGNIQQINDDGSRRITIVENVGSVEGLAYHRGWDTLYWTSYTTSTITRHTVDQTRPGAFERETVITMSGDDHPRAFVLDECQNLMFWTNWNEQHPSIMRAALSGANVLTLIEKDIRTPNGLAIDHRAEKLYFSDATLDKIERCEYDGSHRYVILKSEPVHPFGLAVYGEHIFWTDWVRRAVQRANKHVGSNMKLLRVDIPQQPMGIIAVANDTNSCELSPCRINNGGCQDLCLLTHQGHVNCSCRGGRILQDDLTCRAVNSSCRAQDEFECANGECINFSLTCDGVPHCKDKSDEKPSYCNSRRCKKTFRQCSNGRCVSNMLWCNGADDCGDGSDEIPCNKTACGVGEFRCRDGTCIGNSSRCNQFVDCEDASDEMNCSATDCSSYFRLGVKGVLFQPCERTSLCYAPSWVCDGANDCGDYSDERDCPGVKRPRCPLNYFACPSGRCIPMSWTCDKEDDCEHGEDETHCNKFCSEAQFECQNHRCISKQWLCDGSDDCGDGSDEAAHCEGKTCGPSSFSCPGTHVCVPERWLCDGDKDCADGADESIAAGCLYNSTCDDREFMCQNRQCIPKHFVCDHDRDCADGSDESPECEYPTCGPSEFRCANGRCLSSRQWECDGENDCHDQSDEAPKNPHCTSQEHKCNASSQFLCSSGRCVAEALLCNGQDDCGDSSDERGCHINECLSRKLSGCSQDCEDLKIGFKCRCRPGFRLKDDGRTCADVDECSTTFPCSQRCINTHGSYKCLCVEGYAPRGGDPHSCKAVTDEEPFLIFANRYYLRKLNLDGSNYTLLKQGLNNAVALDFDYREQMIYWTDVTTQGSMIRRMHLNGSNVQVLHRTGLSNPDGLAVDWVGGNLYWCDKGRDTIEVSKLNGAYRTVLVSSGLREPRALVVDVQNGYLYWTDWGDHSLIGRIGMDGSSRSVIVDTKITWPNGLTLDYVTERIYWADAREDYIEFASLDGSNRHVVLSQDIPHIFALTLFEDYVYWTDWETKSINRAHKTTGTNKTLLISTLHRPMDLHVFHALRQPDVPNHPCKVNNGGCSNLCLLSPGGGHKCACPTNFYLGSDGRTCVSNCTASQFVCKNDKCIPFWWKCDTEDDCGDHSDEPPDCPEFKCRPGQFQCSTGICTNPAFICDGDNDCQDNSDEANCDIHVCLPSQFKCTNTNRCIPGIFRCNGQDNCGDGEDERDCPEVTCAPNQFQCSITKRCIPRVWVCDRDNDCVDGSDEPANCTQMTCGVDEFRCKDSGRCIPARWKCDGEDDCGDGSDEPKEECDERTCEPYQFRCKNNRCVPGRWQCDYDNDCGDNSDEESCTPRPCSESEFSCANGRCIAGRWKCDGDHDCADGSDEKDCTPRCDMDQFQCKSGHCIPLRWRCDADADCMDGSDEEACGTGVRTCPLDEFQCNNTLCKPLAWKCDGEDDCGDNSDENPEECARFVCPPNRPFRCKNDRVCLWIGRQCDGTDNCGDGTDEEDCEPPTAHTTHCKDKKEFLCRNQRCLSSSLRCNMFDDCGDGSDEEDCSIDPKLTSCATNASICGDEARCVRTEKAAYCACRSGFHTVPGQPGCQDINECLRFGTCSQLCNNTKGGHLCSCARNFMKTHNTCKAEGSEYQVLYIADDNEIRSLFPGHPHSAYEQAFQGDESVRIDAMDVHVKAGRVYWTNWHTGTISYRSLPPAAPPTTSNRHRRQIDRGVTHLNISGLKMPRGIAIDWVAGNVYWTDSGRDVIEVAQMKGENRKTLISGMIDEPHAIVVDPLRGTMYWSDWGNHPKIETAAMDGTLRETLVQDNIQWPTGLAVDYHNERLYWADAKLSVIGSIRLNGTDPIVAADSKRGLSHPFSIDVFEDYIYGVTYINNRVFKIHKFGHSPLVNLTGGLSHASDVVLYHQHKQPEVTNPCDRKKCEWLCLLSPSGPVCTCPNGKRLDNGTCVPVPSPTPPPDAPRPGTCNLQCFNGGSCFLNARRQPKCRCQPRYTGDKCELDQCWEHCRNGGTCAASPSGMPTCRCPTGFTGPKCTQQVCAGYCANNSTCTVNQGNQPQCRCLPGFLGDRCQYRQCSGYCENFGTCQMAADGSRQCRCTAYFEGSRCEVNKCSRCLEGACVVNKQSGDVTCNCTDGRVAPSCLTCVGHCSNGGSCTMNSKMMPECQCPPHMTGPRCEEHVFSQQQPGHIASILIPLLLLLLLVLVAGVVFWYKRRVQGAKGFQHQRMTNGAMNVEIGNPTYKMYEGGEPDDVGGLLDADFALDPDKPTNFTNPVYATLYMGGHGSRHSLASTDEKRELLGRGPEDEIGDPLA

Turning to LRP1 (from UniProt Q07954), the pKd with amyloid-β (Homo sapiens) is 9.24.
Turning to “recombinant human APOE2 (from UniProt P02649 19-317) (natural protein)”, the pKd in test [1] is 6.93.
Same read-out and setting: to “recombinant human APOE4 (from UniProt P02649 19-317) (natural protein)” belongs 6.94.

Source of the values: publication PMC3744345.
